In assay [1] the target is T1, truncated EGFR, EGFRvIII, on U87MG.deltaEGFR human glioma cells (UniProt P00533 25-1210).
T1 construct: whole, on cells; also called U87MG.AEGFR; truncated and/or mutated epidermal growth factor receptor
Put plainly: FACS on U87MG.deltaEGFR cells, culture medium, anti-alpha tubulin and FITC anti-rat detection. Here is the method:
(§1) The cells, U87MG, U87MG.wtEGFR and U87MG.AEGFR were incubated with culture medium, culture medium from pSECTAG or p6.34 for 30 min at 4° C. The cells were washed, then incubated with rat anti-alpha tubulin followed by FITC-labeled anti-rat antibody.
(§2) The EGFR has three major domains, intracellular, transmembrane and extracellular, any of which may serve as the binding site for clone p6.34. To examine whether the scFv binds to the extracellular portion of the receptor, a FACS analysis was used for this determination. For this assay, culture medium collected from U87MG.pSECTAG or U87MG.pSECTAG.6.34.A8 was allowed to interact with the cell surface of 3 different human glioma sublines; U87MG, U87MG.wtEGFR and U87MG.AEGFR (provided by Dr. H-J. Su Huang, UCSD).

The target in assay [2] is T2, wild-type EGFR on U87MG.wtEGFR human glioma cells (UniProt P00533 25-1210, limits assumed).
T2 construct: whole, on cells; Estimated at >3x10^6 EGFR per cell; also called native full length epidermal growth factor receptor
As to the kind of experiment: FACS on U87MG.wtEGFR cells, culture medium, anti-alpha tubulin and FITC anti-rat detection. Here is the method:
as §1, §2

B1: secretory anti-EGFR scFv clone 6 secreted by stably transfected U87MG.6.34.A8 cells (clone p6.34) (scFv, not shown: small tags and cut ends)
scFv: EVQLVESGGGLVQPGGSLRLSCSASGFTFSSYAMHWVRQAPGKGLEYVSAISSNGGSTYYADSVKGRFTISRDNSKNTLYLQMSSLRAEDTAVYYCVKDVGGSSWYWADYFDYWGQGTLVTVSSGSASAPKLEEGEFSEARVQSVLTQPPSLSVSPGQTASITCSGDKLGDKYASWYQQKPGQSPVLVIYQDRKRPSGIPERFSGSNSGNTATLTISGTQAMDEADYYCQAWDSSTPYVFGTGTKVTVLGQPKANPTVTLFPPSSAAA
notes: The scFv insert was moved from pSEX81 as a Bpu1102I/NotI fragment behind an Ig kappa leader; also called scFv p6.34; clone p6.34 scFv
B1: the binding result in assay [1] and in assay [2] was “binds” in each case.
